Measured values taken from publication PMC9482650, “Quantitative fragmentomics allow affinity mapping of interactomes” (Nature Communications, 2022).

Key:
Test in all cases: holdup assay
Set-up in all cases: key: below the threshold = too weak to quantify, mostly under pKd 3.1 to 4
Conditions in all cases: plain residues with an end cap or a label only (N-terminal biotin on a linker: (peg)3)
LMO7, Q8WWI1 = molecular target: LMO7, Q8WWI1
GIPC3, Q8TF64 = molecular target: GIPC3, Q8TF64
MAGI1_4, Q96QZ7 = molecular target: MAGI1_4, Q96QZ7
GRIP2_2, Q9C0E4 = molecular target: GRIP2_2, Q9C0E4
Q8IUC4 = molecular target: Q8IUC4

Measured: pKd

GIPC3, Q8TF64, sequence (Q8TF64 107-202): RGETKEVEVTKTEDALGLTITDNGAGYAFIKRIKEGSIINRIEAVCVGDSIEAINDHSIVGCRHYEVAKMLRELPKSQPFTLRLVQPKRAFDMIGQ
MAGI1_4, Q96QZ7, sequence (Q96QZ7 other isoform, or with tags, fused parts or gaps): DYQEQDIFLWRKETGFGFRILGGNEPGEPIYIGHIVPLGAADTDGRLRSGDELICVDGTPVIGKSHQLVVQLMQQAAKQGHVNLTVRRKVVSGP
LMO7, Q8WWI1, sequence (Q8WWI1 1037-1138): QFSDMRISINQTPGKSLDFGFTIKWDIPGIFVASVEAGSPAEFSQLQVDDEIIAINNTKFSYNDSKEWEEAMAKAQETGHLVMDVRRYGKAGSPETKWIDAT
GRIP2_2, Q9C0E4, sequence (Q9C0E4 137-245): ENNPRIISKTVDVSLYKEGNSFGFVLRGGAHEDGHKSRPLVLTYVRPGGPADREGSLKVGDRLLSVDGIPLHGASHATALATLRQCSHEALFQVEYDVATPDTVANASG

RYEDTTLVEDTVL [WNV-NS5, Q9Q6P4]
below the threshold: LMO7, Q8WWI1

RRRRSQSRESQC [HBV-HBc, P03193]
below the threshold: GIPC3, Q8TF64 | MAGI1_4, Q96QZ7 | GRIP2_2, Q9C0E4

QQSMSSADSTQA [SARS-Cov2-N, P0DTC9]
below the threshold: all assays above
